The source of these data is patent US9999687B2, “Fluorescent imaging agents” (VisEn Medical, Inc., priority 2008, dated 2018).

[ ]: non-standard residue; d: D form. Cha = N[C@@H](CC1CCCCC1)C(=O)O; F5 = not defined here; βAla = NCCC(=O)O

The test system of assay [1] is activated humanized rabbit Cathepsin K. Put plainly: Enzyme activation profile of Q92 and Q93, Cathepsin K. Format: biochemical. The settings on record: probe 0.5 μM, enzyme 0.05 μM, room temperature, 0-24 hours; panel also Cathepsin B, L, MMP-2, MMP-9; FIG. 6. The method, then: The reactions were performed with appropriate buffer at room temperature in a 96-well plate with a final assay volume of 250 μL and probe and enzyme concentrations of 0.5 μM and 0.05 μM respectively. The buffer for activated humanized rabbit Cathepsin K (Merck) was 50 mM MES (pH 5.0), 2.5 mM EDTA, 2.5 mM DTT. The buffer for Cathepsin B was 25 mM MES (pH 5.0), 1 mM DTT. The recombinant human Cathepsin B (R&D Systems) was activated in buffer of 25 mM MES (pH 5.0) and 5 mM DTT for 15 minutes at room temperature. The recombinant human Cathepsin L (R&D Systems) was activated in buffer of 50 mM MES (pH 6.0), 5 mM DTT, for 15 minutes on ice. The buffer for MMP-2 (BIOMOL) and MMP-9 (BIOMOL) was 50 mM Tris (pH 7.5), 10 mM CaCl2, 150 mM NaCl, and 0.05% Brij-35 detergent. The plate was incubated at room temperature and the activity was monitored at 0, 1, 3, 5, and 24 hours with a Gemini (Molecular Devices) plate reader at excitation wavelength 663 nm, emission 690 nm, and cut off 665 nm. The released fluorescent unit was determined by subtracting the fluorescence of the probe alone from the total fluorescence.

Assay [2] relates to kidneys of mice on a low sodium diet. Put plainly: Renal imaging, low sodium diet versus control diet. In kind it is in vivo, C57BL6 mice. The settings on record: intravenous 0.2-4 nmol/mouse, imaging at 24 hrs, fluorescence molecular tomography; FIG. 12. On the procedure: C57BL6 mice (Jackson Laboratories) were fed a sodium deficient diet (0.02% Na) and water was replaced with a solution of amiloride (0.1 mg/5 mL or 5 mg/kg/day) for 2 days. Control C57BL6 mice were fed regular chow diet and water. Imaging agents [F5]-Lys-His-Pro-Phe-His-Leu-Val-Ile-His-Lys(F5)-[OH] (SEQ ID NO:401) (R20) and ([F5]-Lys-His-Pro-Phe-His-Leu-Val-Ile-His-Lys(F5)-[NHmPEG20k] (SEQ ID NO:428) (R21) were injected intravenously at different concentrations (0.2, 0.7, 2 and 4 nmol/mouse) following 2 days on a low salt diet. Imaging was conducted at 24 hrs using a Fluorescence Molecular Tomography system (VisEn Medical, Woburn Mass.).

For assay [3], the target named is T1, recombinant human Renin (rhRenin) (Homo sapiens, UniProt P00797).
T1 construct: purchased Proteos
T1 sequence (P00797 67-406): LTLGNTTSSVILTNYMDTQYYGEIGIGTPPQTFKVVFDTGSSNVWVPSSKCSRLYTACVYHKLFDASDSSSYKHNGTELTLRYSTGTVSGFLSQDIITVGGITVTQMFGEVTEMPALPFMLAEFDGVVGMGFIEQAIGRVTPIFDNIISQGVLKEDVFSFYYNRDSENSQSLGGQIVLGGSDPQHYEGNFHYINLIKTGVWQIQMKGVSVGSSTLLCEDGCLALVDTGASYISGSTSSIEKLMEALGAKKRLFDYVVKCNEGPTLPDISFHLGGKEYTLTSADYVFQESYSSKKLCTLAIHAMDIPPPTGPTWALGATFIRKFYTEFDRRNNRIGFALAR
The assay can be described thus: Enzyme activation profile of R agents, renin. In kind it is biochemical. The settings on record: probe 1 μM, enzyme 100 nM, 37 C, 24 hours; FIG. 11. On the procedure: (§1) The reactions were performed with appropriate buffer in a 96-well plate with a final assay volume of 250 μL and probe and enzyme concentrations of 1 μM and 100 nM, respectively. The reactions were incubated at 37 C for Renin and room temperature for the other proteases. The buffer for human neutrophil Cathepsin G (BIOMOL) was 100 mM Tris (pH 7.5), 1.6 M NaCl. The buffer for Cathepsin D (BIOMOL) was 100 mM Formic Acid (pH 3.3). The buffer for recombinant human neutrophil elastase (Innovative Research) was 100 mM Tris (pH 7.5). The buffer for plasmin (CalBiochem) and trypsin (Sigma) was 1× phosphate buffered saline (PBS) (pH 7.4). The buffer for recombinant human Renin (rhRenin) (Proteos) and recombinant rat Renin (rrRenin) (Proteos) was 50 mM MOPS (pH 7.4), 100 mM NaCl, with freshly prepared 0.002% tween-20. The plate was incubated at the appropriate temperature and the activity was monitored at 24 hours with a Gemini (Molecular Devices) plate reader at excitation wavelength 663 nm, emission 690 nm, and cut off 665 nm. The released fluorescent unit was determined by subtracting the fluorescence of the probe alone from the total fluorescence.

For assay [4], the target named is T2, human neutrophil Cathepsin G (Homo sapiens, UniProt P08311).
T2 construct: purchased BIOMOL
T2 sequence (P08311 21-244): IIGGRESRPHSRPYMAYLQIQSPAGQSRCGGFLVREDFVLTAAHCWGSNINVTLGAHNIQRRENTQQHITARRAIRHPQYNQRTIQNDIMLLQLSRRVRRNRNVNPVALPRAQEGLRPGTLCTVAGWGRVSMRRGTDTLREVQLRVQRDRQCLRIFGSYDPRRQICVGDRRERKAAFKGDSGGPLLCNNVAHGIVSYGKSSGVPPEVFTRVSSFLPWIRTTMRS
Put plainly: Enzyme activation profile of R agents, Cathepsin G. In kind it is biochemical. The settings on record: probe 1 μM, enzyme 100 nM, room temperature, 24 hours; FIG. 11. The method, then: as §1

The subject of assay [5] is trypsin. The assay can be described thus: Enzyme activation profile of R agents, trypsin. In kind it is biochemical. The conditions noted are these: probe 1 μM, enzyme 100 nM, room temperature, 24 hours; FIG. 11. On the procedure:
as §1

The target of assay [6] is T3, recombinant human neutrophil elastase (Homo sapiens, UniProt P08246).
T3 construct: purchased Innovative Research
T3 sequence (P08246 30-267): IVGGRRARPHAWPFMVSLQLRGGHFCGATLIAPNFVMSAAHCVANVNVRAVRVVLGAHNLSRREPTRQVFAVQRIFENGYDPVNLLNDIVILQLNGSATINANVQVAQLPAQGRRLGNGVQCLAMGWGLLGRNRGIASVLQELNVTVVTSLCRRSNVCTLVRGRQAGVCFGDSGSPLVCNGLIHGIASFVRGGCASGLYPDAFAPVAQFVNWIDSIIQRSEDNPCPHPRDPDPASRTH
The assay can be described thus: Enzyme activation profile of R agents, neutrophil elastase. The conditions noted are these: probe 1 μM, enzyme 100 nM, room temperature, 24 hours; FIG. 11. In kind it is biochemical. On the procedure:
as §1

Assay [7] concerns ovariectomized mice, tibia region. Put plainly: Bone imaging, ovariectomy induced osteoporosis. Format: in vivo, BALB/c female mice. The conditions noted are these: intravenous, 4 and 24 hours post-injection, fluorescence molecular tomography; FIG. 7. The method, then:
BALB/c female mice 7 weeks old (Charles River Laboratory, Wilmington, Mass.) were subjected to ovariectomy or sham surgery to induce osteoporosis. After one to two weeks after surgery, the mice were injected intravenously with imaging agent [F5]-His-Gly-Pro-Asn-Lys(F5)-[PEG20kDa] (SEQ ID NO:427) (Agent Q94). Imaging was conducted at various time points using a Fluorescence Molecular Tomography system (VisEn Medical, Bedford, Mass.).

In the case of “[F5]-His-Gly-Pro-Asn-Lys(F5)-His-Gly-Pro-Asn-βA-[PEG20kDa] (F5-HGPNK(F5)HGPN[βAla]-PEG20kDa; reading uncertain; also: printed as [F5]-His-Gly-Pro-Asn-Lys(F5)-His-Gly-Pro-Asn-βA-[PEG20kDa]) [Agent Q93]”, the “activation by Cathepsin K (released fluorescent unit)” value in assay [1] is recorded as “activated primarily by Cathepsin K”.
As to “[F5]-Lys-His-Pro-Phe-His-Leu-Val-Ile-His-Lys(F5)-[OH] (F5-KHPFHLVIHK(F5)-OH; reading uncertain; also: printed as [F5]-Lys-His-Pro-Phe-His-Leu-Val-Ile-His-Lys(F5)-[OH]) [Agent R20]”, the “kidney signal, low sodium diet versus control diet” value in assay [2] is recorded as “increased signal relative to the kidneys in the mice on the control diet”. Also, the “activation by recombinant human renin (released fluorescent unit)” value (“activation by recombinant human renin” for short) in assay [3] is listed as “activated primarily by recombinant human rennin”.
For “[F5]-Lys-His-Pro-Phe-His-Cha-Val-Ile-His-Lys(F5)-[OH] (F5-KHPFH[Cha]VIHK(F5)-OH; reading uncertain; also: printed as [F5]-Lys-His-Pro-Phe-His-Cha-Val-Ile-His-Lys(F5)-[OH]) [Agent R24]”, the “activation by recombinant human renin” value in assay [3] is reported as “activated primarily by recombinant human rennin”.
For the substance “[F5]-Lys-His-Pro-Phe-His-Leu-Val-Ile-His-Lys(F5)-[NHmPEG5k] (F5-KHPFHLVIHK(F5)-NHmPEG5k; reading uncertain; also: printed as [F5]-Lys-His-Pro-Phe-His-Leu-Val-Ile-His-Lys(F5)-[NHmPEG5k]) [Agent R27]”, the “activation by human neutrophil cathepsin (released fluorescent unit)” value in assay [4] is recorded as “activated”. In addition, in assay [5], the “activation by trypsin (released fluorescent unit)” value is given as “activated”. The “activation by recombinant human renin” value in assay [3] is given as “activated”. Further, the “activation by human neutrophil elastase (released fluorescent unit)” value in assay [6] is “activated”.
As to “[F5]-His-Gly-Pro-Arg-Lys(F5)-[PEG20kDa] (F5-HGPRK(F5)-PEG20kDa; reading uncertain; also: printed as [F5]-His-Gly-Pro-Arg-Lys(F5)-[PEG20kDa]) [Agent Q92]”, in assay [1], the “activation by Cathepsin K (released fluorescent unit)” value is “activated primarily by Cathepsin K”.
On to “[F5]-Lys-His-Pro-Phe-His-Leu-Val-Ile-His-Lys(F5)-[NHmPEG20k] (F5-KHPFHLVIHK(F5)-NHmPEG20k; reading uncertain; also: printed as [F5]-Lys-His-Pro-Phe-His-Leu-Val-Ile-His-Lys(F5)-[NHmPEG20k]) [Agent R21]”, for which, in assay [4], the “activation by human neutrophil cathepsin (released fluorescent unit)” value is reported as “activated”. Moreover, the “kidney signal, low sodium diet versus control diet” value in assay [2] is on record as “increased signal relative to the kidneys in the mice on the control diet”. For the same substance, the “activation by trypsin (released fluorescent unit)” value in assay [5] is “activated”. Further, the “activation by recombinant human renin” value in assay [3] is “activated”. In assay [6], the “activation by human neutrophil elastase (released fluorescent unit)” value is given as “activated”.
With “[F5]-His-Gly-Pro-Asn-Lys(F5)-[PEG20kDa] (F5-HGPNK(F5)-PEG20kDa; reading uncertain; also: printed as [F5]-His-Gly-Pro-Asn-Lys(F5)-[PEG20kDa]) [Agent Q94]”, the “probe signal in tibia region, ovariectomized versus sham mice” value in assay [7] was “increased probe signal detected in the tibia region”.
As to “[F5]-Lys(Ac)-His-Pro-Phe-His-Leu-Val-Ile-His-Lys(F5)-[OH] (F5-K(Ac)HPFHLVIHK(F5)-OH; reading uncertain; also: printed as [F5]-Lys(Ac)-His-Pro-Phe-His-Leu-Val-Ile-His-Lys(F5)-[OH]) [Agent R23]”, the “activation by recombinant human renin” value in assay [3] was “activated primarily by recombinant human rennin”.
